Measured values published in PMC11724954.

T1: QCP (bacteriophage Qβ coat protein) (bacteriophage Qβ, UniProt P03615 2-133)
T1 sequence: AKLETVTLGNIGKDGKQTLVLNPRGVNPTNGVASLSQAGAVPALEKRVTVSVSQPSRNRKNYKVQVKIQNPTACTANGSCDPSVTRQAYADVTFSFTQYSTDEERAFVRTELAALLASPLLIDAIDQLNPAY


Target: T1, QCP (bacteriophage Qβ coat protein)
Experiment: SPR

Binder | Kd
CCAUUAGCUAAGCUAAUGGAAAAAAAAAAAAAAAAAAAAAAAA (structured_RNA) [A14] | 17.8 nM
CCGUUAGCUAAGCUAAUGGAAAAAAAAAAAAAAAAAAAAAAAA (structured_RNA) [A15] | 86.2 nM
CCUUUAGCUAAGCUAAUGGAAAAAAAAAAAAAAAAAAAAAAAA (structured_RNA) [A16] | 28.9 nM
CCUCUAGCUAAGCUAUAGGAAAAAAAAAAAAAAAAAAAAAAAA (structured_RNA) [A17] | 90.8 nM
CCCUUAGCUAAGCUAAGUGAAAAAAAAAAAAAAAAAAAAAAAA (structured_RNA) [A18] | 16 nM
CCCUUAGCUAAGCUAAGGUAAAAAAAAAAAAAAAAAAAAAAAA (structured_RNA) [A19] | 80.4 nM
